Paper PMC11655906
Values joined by “and” are separate entries in the source; they are usually repeats but may differ in a detail not shown here. Identical values can stand only once.

Biological target: mouse Flower isoform 4 with C-terminal mTFP (mFwe4-mTFP) (mouse)
Test: native gel or EMSA; native PAGE (4-16% Bis-Tris, G-250 additive) of lysates of transfected Fwe KO mouse CTLs (modified RIPA: 50 mM Tris pH 7.5, 50 mM NaCl, 1% Triton-X-100, 1 mM EDTA), western blot with anti-DsRed recognising mTFP; oligomeric state read from band size

Sequence of mouse Flower isoform 4 with C-terminal mTFP (mFwe4-mTFP) (natural protein) (Q8BG21 whole entry, canonical isoform): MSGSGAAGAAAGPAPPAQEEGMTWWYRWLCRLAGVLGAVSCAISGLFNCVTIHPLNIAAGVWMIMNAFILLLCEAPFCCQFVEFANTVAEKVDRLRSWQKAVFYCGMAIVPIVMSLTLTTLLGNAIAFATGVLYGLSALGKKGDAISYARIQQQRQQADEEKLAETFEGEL

- stoichiometry N: 4 and 6
Substance: mouse Flower isoform 4 with C-terminal mTFP (mFwe4-mTFP) (natural protein)
